Measurements reported in patent publication US10772928B2, “Modulation and detection of a neuronal alternative splicing regulatory network for treatment and diagnosis of neurological disorders” (The Governing Council of the University of Toronto, priority 2014, dated 2020).

Target: T1, nSR100 (Mus musculus, UniProt Q8BKA3)
T1 construct: host or cells: mouse N2A cells
T1 sequence (Q8BKA3 1-608): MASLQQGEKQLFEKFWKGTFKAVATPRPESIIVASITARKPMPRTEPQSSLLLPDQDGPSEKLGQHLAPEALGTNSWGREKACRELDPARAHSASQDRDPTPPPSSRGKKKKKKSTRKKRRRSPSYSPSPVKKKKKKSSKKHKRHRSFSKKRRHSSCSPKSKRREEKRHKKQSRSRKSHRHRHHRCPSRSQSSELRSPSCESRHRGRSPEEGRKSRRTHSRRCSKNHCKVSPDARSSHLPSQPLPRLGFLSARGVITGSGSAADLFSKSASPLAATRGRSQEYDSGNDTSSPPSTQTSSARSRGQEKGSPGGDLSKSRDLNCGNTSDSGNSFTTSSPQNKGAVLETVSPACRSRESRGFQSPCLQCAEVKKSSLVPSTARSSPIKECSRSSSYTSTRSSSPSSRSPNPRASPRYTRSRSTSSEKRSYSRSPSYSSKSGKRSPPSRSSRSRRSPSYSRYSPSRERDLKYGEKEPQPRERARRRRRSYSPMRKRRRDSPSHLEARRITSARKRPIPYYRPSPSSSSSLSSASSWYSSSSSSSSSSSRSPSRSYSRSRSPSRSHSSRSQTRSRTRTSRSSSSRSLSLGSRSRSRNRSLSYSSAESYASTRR
Test: AP-MS nSR100 interaction partners from mouse N2A cells (Table 5)
Type: binding
Conditions: for AvgP (average of the SAINT scores) / MaxP (maximal SAINT score): bait Srrm4; for FoldChange between the prey Avg spectra of the bait and control purifications: bait Srrm4, 0.1 added to prevent division by 0; for AvgSpec (average number of spectra per replicate): bait Srrm4, 2 replicates; for Spectra (number of spectra for the prey in the purification of the bait): AP-MS; for SpecSum: bait Srrm4, sum of spectra over 2 replicates

[1] = bait Srrm4, biological replicate 1 (first number of the cell)
[2] = bait Srrm4, biological replicate 2 (second number of the cell)

Text: By applying affinity purification coupled to mass-spectrometry (AP-MS), several interaction nSR100 partner proteins were detected that provide insight into mechanisms of post-translational regulation of nSR100 levels.

B1: Dhx8 (protein, UniProt A2A4P0 1-1244, looked up)
ATP-dependent RNA helicase …: MAVAVAAAGVLMGSEPGPAEELAKLEYLSLVSKVCTELDNHLGINDKDLAEFVISLAEKNTTFDTFKASLVKNGAEFTDSLISNLLRLIQTMRPPAKPSTSKDPVVKPKTEKEKLRELFPVLCQPDNPSARTMLDEEDVKVAVDVLKELEALMPSAAGQEKQRDPEHRDRTKKKKRSRSRDRDRDRDRDRDRDRDRDRDRDKDRERDRDRERDRERDRERDHKRRHRSRSRSHSRTRERTKGKSRYRSRSRSQSPFKDRKDREKYGERNLDRWRDKHVDRPPPEEPAIGDIYNGKVTSIMQFGCFVQLEGLRKRWEGLVHISELRREGRVANVADVVSKGQRVKVKVLSFTGTKTSLSMKDVDQETGEDLNPNRRRNLVGETNEETSMRNPDRPTHLSLVSAPEVEDDSLERKRLTRISDPEKWEIKQMIAANVLSKEEFPDFDEETGILPKVDDEEDEDLEIELVEEEPPFLRGHTKQSMDMSPIKIVKNPDGSLSQAAMMQSALAKERRELKQAQREAEMDSIPMGLNKHWVDPLPDAEGRQIAANMRGIGMMPNDIPEWKKHAFGGNKASYGKKTQMSILEQRESLPIYKLKEQLVQAVHDNQILIVIGETGSGKTTQITQYLAEAGYTSRGKIGCTQPRRVAAMSVAKRVSEEFGCCLGQEVGYTIRFEDCTSPETVIKYMTDGMLLRECLIDPDLTQYAIIMLDEAHERTIHTDVLFGLLKKTVQKRQDMKLIVTSATLDAVKFSQYFYEAPIFTIPGRTYPVEILYTKEPETDYLDASLITVMQIHLTEPPGDILVFLTGQEEIDTACEILYERMKSLGPDVPELIILPVYSALPSEMQTRIFDPAPPGSRKVVIATNIAETSLTIDGIYYVVDPGFVKQKVYNSKTGIDQLVVTPISQAQAKQRAGRAGRTGPGKCYRLYTERAYRDEMLTTNVPEIQRTNLASTVLSLKAMGINDLLSFDFMDAPPMETLITAMEQLYTLGALDDEGLLTRLGRRMAEFPLEPMLCKMLIMSVHLGCSEEMLTIVSMLSVQNVFYRPKDKQALADQKKAKFHQTEGDHLTLLAVYNSWKNNKFSNPWCYENFIQARSLRRAQDIRKQMLGIMDRHKLDVVSCGKSTVRVQKAICSGFFRNAAKKDPQEGYRTLIDQQVVYIHPSSALFNRQPEWVVYHELVLTTKEYMREVTTIDPRWLVEFAPAFFKVSDPTKLSKQKKQQRLEPLYNRYEEPNAWRISRAFRRR
  AvgP (average of the SAINT scores): 0.99
  MaxP (maximal SAINT score): 1
  FoldChange between the prey Avg spectra of the bait and control purifications: 7.33
  AvgSpec (average number of spectra per replicate): 11
  SpecSum: 22
[1]
  Spectra (number of spectra for the prey in the purification of the bait): 8
[2]
  Spectra (number of spectra for the prey in the purification of the bait): 14

B2: Eif4a3 (protein, UniProt Q91VC3 1-411, looked up)
Eukaryotic initiation factor …: MAANATMATSGSARKRLLKEEDMTKVEFETSEEVDVTPTFDTMGLREDLLRGIYAYGFEKPSAIQQRAIKQIIKGRDVIAQSQSGTGKTATFSVSVLQCLDIQVRETQALILAPTRELAVQIQKGLLALGDYMNVQCHACIGGTNVGEDIRKLDYGQHVVAGTPGRVFDMIRRRSLRTRAIKMLVLDEADEMLNKGFKEQIYDVYRYLPPATQVVLISATLPHEILEMTNKFMTDPIRILVKRDELTLEGIKQFFVAVEREEWKFDTLCDLYDTLTITQAVIFCNTKRKVDWLTEKMREANFTVSSMHGDMPQKERESIMKEFRSGASRVLISTDVWARGLDVPQVSLIINYDLPNNRELYIHRIGRSGRYGRKGVAINFVKNDDIRILRDIEQYYSTQIDEMPMNVADLI
  AvgP (average of the SAINT scores): 0.99
  MaxP (maximal SAINT score): 1
  FoldChange between the prey Avg spectra of the bait and control purifications: 3.82
  AvgSpec (average number of spectra per replicate): 21
  SpecSum: 42
[1]
  Spectra (number of spectra for the prey in the purification of the bait): 18
[2]
  Spectra (number of spectra for the prey in the purification of the bait): 24

B3: Sf3a3 (protein, UniProt Q9D554 1-501, looked up)
Splicing factor 3A subunit 3: METILEQQRRYHEEKERLMDVMAKEMLTKKSTLRDQINSDHRTRAMQDRYMEVSGNLRDLYDDKDGLRKEELNAISGPNEFAEFYNRLKQIKEFHRKHPNEICVPMSVEFEELLKARENPSEEAQNLVEFTDEEGYGRYLDLHDCYLKYINLKASEKLDYITYLSIFDQLFDIPKERKNAEYKRYLEMLLEYLQDYTDRVKPLQDQNELFGKIQTDFEKKWDNGTFPGWPKETSSALTHAGAHLDLSAFSSWEELASLGLDRLKSALLALGLKCGGTLEERAQRLFSTKGKSLESLDTSLFAKNPKSKGTKRDTERNKDIAFLEAQIYEYVEILGEQRQLTHENVQRKQARTGEEREEEEEEQISESESEDEENEIIYNPKNLPLGWDGKPIPYWLYKLHGLNINYNCEICGNYTYRGPKAFQRHFAEWRHAHGMRCLGIPNTAHFANVTQIEDAVSLWAKLKLQKASERWQPDTEEEYEDSSGNVVNKKTYEDLKRQGLL
  AvgP (average of the SAINT scores): 0.99
  MaxP (maximal SAINT score): 0.99
  FoldChange between the prey Avg spectra of the bait and control purifications: 10.5
  AvgSpec (average number of spectra per replicate): 10.5
  SpecSum: 21
[1]
  Spectra (number of spectra for the prey in the purification of the bait): 11
[2]
  Spectra (number of spectra for the prey in the purification of the bait): 10
